Results: publication PMC6309224
Each block holds one substance with its values, some of them ahead of it.

What was measured:
[1] = target: Dpr21 ectodomain (Asp48-Asp253) (Drosophila melanogaster); assay: AUC
[2] = target: DIP-ι ectodomain (Phe23-Ala325) (Drosophila melanogaster); assay: SPR
[3] = target: DIP-α ectodomain (isoform A Phe40-Pro341) (Drosophila melanogaster); assay: SPR
[4] = target: DIP-η ectodomain (isoform B Gln31-Pro338) (Drosophila melanogaster); assay: SPR
[5] = target: DIP-θ ectodomain (Asp128-Pro423) (Drosophila melanogaster); assay: SPR
[6] = target: DIP-ε ectodomain (Glu50-Ser351) (Drosophila melanogaster); assay: SPR
[7] = target: DIP-ζ ectodomain (isoform A Glu111-Tyr412) (Drosophila melanogaster); assay: SPR
[8] = target: DIP-β ectodomain (isoform C Ile82-Glu408) (Drosophila melanogaster); assay: SPR
[9] = target: DIP-ζ ectodomain (isoform A Glu111-Tyr412) (Drosophila melanogaster); assay: AUC
[10] = target: DIP-η ectodomain (isoform B Gln31-Pro338) (Drosophila melanogaster); assay: AUC
[11] = target: Dpr12 ectodomain (Dpr12C Ser72-Asp285) (Drosophila melanogaster); assay: AUC
[12] = target: DIP-α ectodomain (isoform A Phe40-Pro341) (Drosophila melanogaster); assay: AUC

Substance: Dpr21 ectodomain (Asp48-Asp253) (domain or fragment)
Kd [1]: 49.1 µM

Substance: Dpr7 ectodomain (Dpr7F Thr37-Glu269) (domain or fragment)
Kd [2]: 136 µM

Substance: Dpr18 ectodomain (His214-Glu478) (domain or fragment)
Kd [6]: 21.2 µM
Kd [7]: 24.7 µM

Substance: Dpr4 K82H ectodomain (domain or fragment)
Kd [3]: > 400 µM

Substance: DIP-ζ ectodomain (isoform A Glu111-Tyr412) (domain or fragment)
Kd [9]: 22.2 µM

Substance: Dpr6 ectodomain (Dpr6C Trp70-Glu275) (domain or fragment)
Kd [8]: 19.4 µM

Substance: Dpr6 H110K ectodomain (domain or fragment)
fold decrease in binding against wild-type Dpr6 [3]: 25 fold

Substance: Dpr10 ectodomain (Dpr10D Trp50-Glu255) (domain or fragment)
Kd [8]: 54.9 µM

Substance: Dpr2 ectodomain (Dpr2F Tyr103-Glu323) (domain or fragment)
Kd [4]: 41 µM
Kd [2]: 22.4 µM

Continued, values first:

Kd [3]: 16 µM
Substance: Dpr4 D74N A76T K82H K136V ectodomain (domain or fragment)

Kd [3]: 44.9 µM
fold weaker binding than wild-type Dpr4 [4]: > 4 fold
fold weaker binding than wild-type Dpr4 [5]: > 4 fold
Substance: Dpr4 K82H K136V ectodomain (domain or fragment)

Kd [8]: 94 µM
Substance: Dpr11 ectodomain (Dpr11B Leu114-Glu324) (domain or fragment)

Kd [6]: 69.2 µM
Kd [7]: 106 µM
Substance: Dpr14 ectodomain (Dpr14A Thr26-Glu283) (domain or fragment)

Kd [10]: 35.4 µM
Substance: DIP-η ectodomain (isoform B Gln31-Pro338) (domain or fragment)

Kd [4]: 119 µM
Kd [5]: 72 µM
Substance: Dpr6 N102D H110K V164K ectodomain (domain or fragment)

Kd [11]: 71.3 µM
Substance: Dpr12 ectodomain (Dpr12C Ser72-Asp285) (domain or fragment)

Kd [12]: 23.9 µM
Substance: DIP-α ectodomain (isoform A Phe40-Pro341) (domain or fragment)
